One block for each molecule: values may come before it.
Columns and labels:
Assay type in all cases: biochemical
[1] = Synthesis of N-lauroylamino acid / N-lauroylamino acid derivative using purified acylamino acid synthetase, UPLC-MS detection; design: key: +: Detected; −: Not detected; conditions: +ATP
[2] = Synthesis of N-acylamino acids from various fatty acids using purified acylamino acid synthetase, UPLC-MS detection; design: key: +: Detected; −: Not detected
Outline: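 Purified enzyme (200 μg/mL) with 5 mM amino acid, 5 mM sodium fatty acid (3 mM palmitate or stearate, plus 10% methanol), 10 mM ATP, 10 mM MgCl2, 1 mM DTT in 50 mM Tris-HCl pH 8.0, shaken 24 h at 25 °C. Amino acid varied by enzyme; product mass detected by UPLC-MS (ESI-negative).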

[3] = Quantification of produced N-acylamino acid (UV 210 nm) using purified acylamino acid synthetase; conditions: 5 mM sodium fatty acid, 200 μg/mL enzyme, 25° C., 24 hours; for Nα-caprinoyl-L-aspartic acid detected / Nα-capryloyl-L-aspartic acid detected / Nα-lauroyl-L-aspartic acid detected: 5 mM L-Asp
Experimental: 0.1 mL of a reaction solution containing 50 mM Tris-HCl, 5 mM amino acid, 5 mM sodium fatty acid, 10 mM ATP, 10 mM MgCl2, 1 mM DTT, 200 μg/mL of the purified enzyme, pH 8.0 was incubated at 25° C. for 24 hours. As amino acids, L-Asp was used in AtGH3-6, OsGH3-8, AtGH3-5, AtGH3-12, and Gly or L-Ala was used in CfHP. After completion of the reaction, 0.4 mL of the reaction stop solution (1% (v/v) phosphoric acid, 75% (v/v) methanol) was added, and the mixture was filtrated through the filter followed by being subjected to the UPLC-MS analysis to quantify the produced N-acylamino acid by detection at UV 210 nm. The condition for the UPLC-MS analysis is as descried in Example 2. As a result of the analysis, 3.9 mM of Nα-capryloyl-L-aspartic acid, 4.5 mM of Nα-caprinoyl-L-aspartic acid and 2.2 mM of Nα-lauroyl-L-aspartic acid were detected when AtGH3-6 was used; 4.3 mM of Nα-capryloyl-L-aspartic acid, 4.6 mM of Nα-caprinoyl-L-aspartic acid and 3.5 mM of Nα-lauroyl-L-aspartic acid were detected when OsGH3-8 was used; 4.1 mM of Nα-capryloyl-L-aspartic acid, 4.6 mM of Nα-caprinoyl-L-aspartic acid and 2.5 mM of Nα-lauroyl-L-aspartic acid were detected when AtGH3-5 was used; 1.6 mM of Nα-capryloyl-L-aspartic acid, 0.6 mM of Nα-caprinoyl-L-aspartic acid and 0.2 mM of Nα-lauroyl-L-aspartic acid were detected when AtGH3-12 was used; 4.5 mM of Nα-capryloylglycine, 4.6 mM of Nα-caprinoylglycine, 0.1 mM of Nα-lauroylglycine, 3.1 mM of Nα-capryloyl-L-alanine, 3.6 mM of Nα-caprinoyl-L-alanine and 0.4 mM of Nα-lauroyl-L-alanine were detected when CfHP was used.

[4] = Synthesis of N-lauroylamino acid / N-lauroylamino acid derivative using purified acylamino acid synthetase, UPLC-MS detection; design: key: +: Detected; −: Not detected; conditions: +ATP; remark: listed apart in the source
Experimental: 0.2 mL of a reaction solution containing 50 mM Tris-HCl, 5 mM amino acid or D-amino acid derivative, 5 mM sodium laurate, 10 mM ATP, 10 mM MgCl2, 1 mM DTT, 200 μg/mL of the purified enzyme, pH 8.0 was incubated at 25° C. for 24 hours. After completion of the reaction, 0.8 mL of the reaction stop solution (1% (v/v) phosphoric acid, 75% (v/v) methanol) was added, and the mixture was filtrated through the filter followed by being subjected to the UPLC-MS analysis to detect a signal of a molecular weight corresponding to an N-lauroyl-amino acid or an N-lauroyl-amino acid derivative. The condition for the UPLC-MS analysis is as described in Example 2.
As a result of the UPLC-MS analysis, the signal of the molecular weight corresponding to the N-lauroyl-amino acid or the N-lauroyl-amino acid derivative was confirmed in the reaction solution containing the enzyme in combination with the amino acid or the amino acid derivative shown in Table 5 below.

[5] = substrates Sarcosine and sodium laurate
[6] = substrates Taurine and sodium laurate
[7] = substrates L-Asp and Capric acid
[8] = substrates L-Asp and Caproic acid
[9] = substrates L-Asp and Caprylic acid
[10] = substrates L-Asp and Lauric acid
[11] = substrates L-Asp and Linoleic acid
[12] = substrates L-Asp and Palmitic acid
[13] = substrates L-Asp and myristic acid
[14] = substrates Gly and sodium laurate
[15] = substrates L-Ala and sodium laurate
[16] = substrates L-Arg and sodium laurate
[17] = substrates L-Asp and sodium laurate
[18] = substrates L-Glu and sodium laurate
[19] = substrates L-Lys and sodium laurate
[20] = substrates L-Thr and sodium laurate
[21] = substrates β-Ala and sodium laurate

signal of molecular weight corresponding to N-lauroyl amino acid derivative [1, 5]: − | signal of molecular weight corresponding to N-lauroyl amino acid derivative [1, 6]: + | signal of molecular weight corresponding to N-acylamino acid [2, 7]: + | signal of molecular weight corresponding to N-acylamino acid [2, 8]: + | signal of molecular weight corresponding to N-acylamino acid [2, 9]: + | signal of molecular weight corresponding to N-acylamino acid [2, 10]: + | signal of molecular weight corresponding to N-acylamino acid [2, 11]: − | signal of molecular weight corresponding to N-acylamino acid [2, 12]: + | signal of molecular weight corresponding to N-acylamino acid [2, 13]: + | Nα-caprinoyl-L-aspartic acid detected [3]: 4.6 mM | Nα-capryloyl-L-aspartic acid detected [3]: 4.3 mM | Nα-lauroyl-L-aspartic acid detected [3]: 3.5 mM | signal of molecular weight corresponding to N-lauroyl amino acid [4, 14]: + | signal of molecular weight corresponding to N-lauroyl amino acid [4, 15]: + | signal of molecular weight corresponding to N-lauroyl amino acid [4, 16]: + | signal of molecular weight corresponding to N-lauroyl amino acid [4, 17]: + | signal of molecular weight corresponding to N-lauroyl amino acid [4, 18]: + | signal of molecular weight corresponding to N-lauroyl amino acid [4, 19]: + | signal of molecular weight corresponding to N-lauroyl amino acid [4, 20]: + | signal of molecular weight corresponding to N-lauroyl amino acid [4, 21]: +
B1: OsGH3-8: probable indole-3-acetic acid-amido synthetase GH3.8 from Oryza sativa, expressed in E. coli with N-terminal His-tag (protein, listed as Oryza sativa)
chain: MAVMTDVSTTGTALRTPAAGAVKEGDVEKLRFIDEMTTNVDAVQERVLGEILGRNAGTEYLTKCGLDGATDRAAFRAKVPVVSYDDLQPYIQRIANGDRSPILSTHPVSEFLTSSGTSAGERKLMPTIMDELDRRQLLYSLLMPVMNLYVPGLDKGKGLYFLFVKSETKTPGGLTARPVLTSYYKSDHFKNRPYDPYHNYTSPTAAILCADAFQSMYAQMVCGLCQRNDVLRLGAVFASGLLRAIRFLQLNWEQLADDIESGELTPRVTDPSVREAVAAILLPDPELAKLIRAECSKGDWAGIITRVWPNTKYLDVIVTGAMAQYIPTLEFYSGGLPMACTMYASSECYFGLNLRPMCDPSEVSYTIMPNMGYFEFLPVDETGAASGDATQLVDLARVEVGREYELVITTYAGLNRYRVGDVLRVTGFHNAAPQFRFVRRKNVLLSIESDKTDEAELQRAVERASALLRPHGASVVEYTSQACTKRIPGHYVIYWELLTKGAGATVVDADTLGRCCLEMEEALNTVYRQSRVADGSIGPLEIRVVRPGTFEELMDYAISRGASINQYKVPRCVTFPPIVELLDSRVVSSHFSPALPHWTPARRSE
modifications: N-terminal His-tag
notes: probable indole-3-acetic acid-amido synthetase GH3.8 from Oryza sativa, expressed in E. coli with N-terminal His-tag

B2: CfHP: hypothetical protein from Cystobacter fuscus (GH3 protein), His-tagged (protein, listed as Cystobacter fuscus)
chain: MQAAGRRDKQRFIEQTRHVARVNVDTLRAILQHNRDTDFGRRHGFASLRTVEDFQRALPVSTYEPFRPYMERIARGEQNVLTADRVEYLGITSGTTGQRKLLPVSRPHLENMRRTMMIGRAVVTEKVPAARRPSRGMILMNAVLRERSEGGLLTGALTAISTHSMGRAASFAFTSPPEAFRLRKHADALYLHLLFGLRERELGTLMAPFASGLLDMVHLLERRGADLVDDIARGVLRPELDLEPEQRRLLQSRLLPDPERAREVSQALEQGPHGLLRRLWPRLAYVSSITGASFSLYTRQLTPYLEGVPLSAASYVSTEGILGVPLELEQAVYCLMVGMAFFEFIPERELDAESPTTLLPEQLVEGEAYEVVLTTQAGLYRYRLGDVVRIVGRYHEAPLMEFLYRRGALLNLMGEKTSEHAARLALEQALATEGLLPADYSVVEETETLPGRYALFVELQEGARPQGAPEQLSRALEEALCRTNPFYEVIRRSERLGAAQLHRVEPGTFQALRDVLVQRGASPTQVKVPRVVRDAELQGLLRQRRVTG
modifications: His-tag
notes: hypothetical protein from Cystobacter fuscus (GH3 protein), His-tagged
signal of molecular weight corresponding to N-acylamino acid ([2]; substrates Gly and Capric acid): + | signal of molecular weight corresponding to N-acylamino acid ([2]; substrates Gly and Caproic acid): + | signal of molecular weight corresponding to N-acylamino acid ([2]; substrates Gly and Caprylic acid): + | signal of molecular weight corresponding to N-acylamino acid ([2]; substrates Gly and Lauric acid): + | signal of molecular weight corresponding to N-acylamino acid ([2]; substrates Gly and Linoleic acid): − | signal of molecular weight corresponding to N-acylamino acid ([2]; substrates Gly and Palmitic acid): + | signal of molecular weight corresponding to N-acylamino acid ([2]; substrates Gly and myristic acid): + | Nα-caprinoylglycine detected ([3]; 5 mM Gly): 4.6 mM | Nα-capryloylglycine detected ([3]; 5 mM Gly): 4.5 mM | Nα-lauroylglycine detected ([3]; 5 mM Gly): 0.1 mM | Nα-caprinoyl-L-alanine detected ([3]; 5 mM L-Ala): 3.6 mM | Nα-capryloyl-L-alanine detected ([3]; 5 mM L-Ala): 3.1 mM | Nα-lauroyl-L-alanine detected ([3]; 5 mM L-Ala): 0.4 mM

signal of molecular weight corresponding to N-lauroyl amino acid derivative [1, 5]: + | signal of molecular weight corresponding to N-lauroyl amino acid derivative [1, 6]: + | signal of molecular weight corresponding to N-acylamino acid [2, 7]: + | signal of molecular weight corresponding to N-acylamino acid [2, 8]: + | signal of molecular weight corresponding to N-acylamino acid [2, 9]: + | signal of molecular weight corresponding to N-acylamino acid [2, 10]: + | signal of molecular weight corresponding to N-acylamino acid [2, 11]: − | signal of molecular weight corresponding to N-acylamino acid [2, 12]: + | signal of molecular weight corresponding to N-acylamino acid [2, 13]: + | Nα-caprinoyl-L-aspartic acid detected [3]: 4.5 mM | Nα-capryloyl-L-aspartic acid detected [3]: 3.9 mM | Nα-lauroyl-L-aspartic acid detected [3]: 2.2 mM | signal of molecular weight corresponding to N-lauroyl amino acid [4, 14]: + | signal of molecular weight corresponding to N-lauroyl amino acid [4, 15]: + | signal of molecular weight corresponding to N-lauroyl amino acid [4, 16]: + | signal of molecular weight corresponding to N-lauroyl amino acid [4, 17]: + | signal of molecular weight corresponding to N-lauroyl amino acid [4, 18]: + | signal of molecular weight corresponding to N-lauroyl amino acid [4, 19]: + | signal of molecular weight corresponding to N-lauroyl amino acid [4, 20]: + | signal of molecular weight corresponding to N-lauroyl amino acid [4, 21]: +
B3: AtGH3-6: indole-3-acetic acid-amido synthetase GH3.6 from Arabidopsis thaliana, expressed in E. coli with N-terminal His-tag (protein, listed as Arabidopsis thaliana)
chain: MPEAPKIAALEVSDESLAEKNKNKLQFIEDVTTNADDVQRRVLEEILSRNADVEYLKRHGLEGRTDRETFKHIMPVVTYEDIQPEINRIANGDKSQVLCSNPISEFLTSSGTSGGERKLMPTIEEELDRRSLLYSLLMPVMDQFVPGLDKGKGMYFLFIKSESKTPGGLPARPVLTSYYKSSHFKNRPYDPYTNYTSPNQTILCSDSYQSMYSQMLCGLCQHKEVLRVGAVFASGFIRAIKFLEKHWPELARDIRTGTLSSEITDSSVREAVGEILKPDPKLADFVESECRKTSWQGIITRLWPNTKYVDVIVTGTMSQYIPTLDYYSNGLPLVCTMYASSECYFGVNLRPLCKPSEVSYTLIPNMAYFEFLPVHRNSGVTSSISLPKALTEKEQQELVDLVDVKLGQEYELVVTTYAGLYRYRVGDVLSVAGFKNNAPQFSFICRKNVVLSIDSDKTDEVELQNAVKNAVTHLVPFDASLSEYTSYADTSSIPGHYVLFWELCLNGNTPIPPSVFEDCCLTIEESLNSVYRQGRVSDKSIGPLEIKMVESGTFDKLMDYAISLGASINQYKTPRCVKFAPIIELLNSRVVDSYFSPKCPKWSPGHKQWGSN
modifications: N-terminal His-tag
notes: indole-3-acetic acid-amido synthetase GH3.6 from Arabidopsis thaliana, expressed in E. coli with N-terminal His-tag
